In patent US20250382602:
Positions count from the first letter of the chain named.

Tests used:
[1] = molecular target: T1, Dda 1993 C114G C114G (Enterobacteria phage T4) (UniProt P32270); conditions: nanopore translocation; background mutations not given
T1 sequence: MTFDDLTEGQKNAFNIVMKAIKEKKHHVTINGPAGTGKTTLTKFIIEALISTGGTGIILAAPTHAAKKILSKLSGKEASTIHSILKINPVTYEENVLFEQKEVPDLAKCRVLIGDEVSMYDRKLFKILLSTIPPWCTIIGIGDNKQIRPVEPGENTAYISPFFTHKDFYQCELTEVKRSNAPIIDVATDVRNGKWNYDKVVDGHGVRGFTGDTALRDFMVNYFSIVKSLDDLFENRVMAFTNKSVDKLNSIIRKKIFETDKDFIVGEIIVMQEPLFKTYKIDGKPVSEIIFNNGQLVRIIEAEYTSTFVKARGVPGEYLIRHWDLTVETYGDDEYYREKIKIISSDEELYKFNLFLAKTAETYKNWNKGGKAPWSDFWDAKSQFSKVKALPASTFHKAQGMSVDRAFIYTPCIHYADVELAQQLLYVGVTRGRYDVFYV

[2] = molecular target: T2, Dda 1993 N221E N221E (Enterobacteria phage T4) (UniProt P32270); conditions: nanopore translocation, PromethION; background mutations not given
T2 sequence: T1 sequence with G114C, N221E

[3] = molecular target: T3, Dda 1993 T210K T210K (Enterobacteria phage T4) (UniProt P32270); conditions: nanopore translocation, PromethION; background mutations not given
T3 sequence: T1 sequence with G114C, T210K

[4] = molecular target: T4, Dda 1993 T156F T156F (Enterobacteria phage T4) (UniProt P32270); conditions: nanopore translocation, PromethION; background mutations not given
T4 sequence: T1 sequence with G114C, T156F

[5] = molecular target: T5, Dda 1993 Y350E Y350E (Enterobacteria phage T4) (UniProt P32270); conditions: nanopore translocation, PromethION; background mutations not given
T5 sequence: T1 sequence with G114C, Y350E

[6] = molecular target: T6, Dda 1993 T55K T55K (Enterobacteria phage T4) (UniProt P32270); conditions: nanopore translocation, PromethION; background mutations not given
T6 sequence: T1 sequence with T55K, G114C

barcoded 3.6 kb DNA analyte ligated to sequencing Y adaptor
activity (bps speed delta vs control) [1]: -11.3 | activity (bps speed delta vs control) [2]: 4.37 | activity (bps speed delta vs control) [3]: 0.52 | activity (bps speed delta vs control) [4]: 13.8 | activity (bps speed delta vs control) [5]: 6.06 | activity (bps speed delta vs control) [6]: 8.29
